Assays:
[1] = molecular target: the molecule itself; experiment: native gel or EMSA; purified PaBfrB on 6% native PAGE, Tris-glycine pH 8.3, 4 °C
[2] = molecular target: the molecule itself; experiment: cryo-EM structure; single-particle cryo-EM of purified SoBfr12 (1.7 mg mL^-1), subunits co-expressed in E. coli; refined with C1 symmetry, 2.62 Å

Protein	binding result [1]	stoichiometry N [2]
PaBfrB, Pseudomonas aeruginosa homo-bacterioferritin subunit (natural protein, also called homo-Bfr) not shown	binds	–
SoBfr1, heme-free subunit of the Shewanella oneidensis hetero-bacterioferritin SoBfr12 (natural protein, SoBfr1, heme-free bacterioferritin subunit of Shewanella oneidensis, amplified from genomic DNA together with SoBfr2; Expressed from one DNA fragment encoding SoBfr2 and SoBfr1 with a Strep-tag II; not shown: Strep-tag II, C-terminal, kept) MKGDKDVIDALNRLLTGELSAMDQYFVHAHMYEDWGLNELYERIAHESDDEKGHAAKLVQRILFLEGVPNVAAREALNIGSNVEEMLRNDLAYEYKVADDLRKVIALCEQKKDYQTREILEVLLDDTESDHMYWLEKQLGLIDRIGLANYLQTKM	–	2
SoBfr2, heme-binding subunit of the Shewanella oneidensis hetero-bacterioferritin SoBfr12 (natural protein) MKGHPKVVGQLNRVLTCELTAINQYFLHARMFKHWGLEKLNHVEYKKSIEDMKHADKLIERVLFLEGLPNLQQLEKLRIGEHAQEMLDCDLAMVQEQLTLLRDAITLCEAEQDYVSRDLLEDILEDEEEHLDWLESQRELIGLTGIQNYLQSQISES	–	2

From publication PMC12120770, “Unveiling Structural Heterogeneity and Evolutionary Adaptations of Heteromultimeric Bacterioferritin Nanocages” (Advanced Science, 2025)
